Measured values from patent US20070073040A1, “Anti-obesity polypeptides” (Yonsei University, priority 2001, published 2007).
Values joined by “and” are separate entries in the source; they are usually repeats but may differ in a detail not shown here. Identical values can stand only once.

How the values were obtained:
[1] = clinical test, cited from earlier work
[2] = Body weight of ZDF rats with nonfunctional Leptin receptor treated with SynLeptin polypeptides; type: in vivo, rat; conditions: 12-week-old ZDF rats; injected two times every two weeks into hypoderm; after about 30 days; saline control 8.5% increase
Experimental: FIG. 2 illustrates weigh loss when SynLeptin-1 or 2 polypeptide was injected two times every two weeks into the hypoderm of 12-week-old ZFD rats with non-functional Leptin receptor.
(§1) 4 white rabbits with 1.2 kg body weight were divided into a control group and an experimental group having two rabbits, respectively. The purified SynLeptin-1 or -2 protein (500-700 μg or saline was mixed with Adjuvant 2 ml (Sigma), and then injected into 4 different parts of the rabbit hypoderm. After 2 weeks, an equivalent amount of the protein-Adjuvant mixture was injected, and then third injection was performed after 2 weeks. Thereafter, body weight loss was measured after 10 days. The result was as follows. The body weight of the experimental group treated with SynLeptin-1 was 1.8 kg and 2.08 kg, respectively (average 1.94 kg), while the body weight of the control group was 2.5 kg and 2.45 kg, respectively (average 2.48 kg). […] Also we treated the ZDF rats with nonfunctional Leptin receptor gene with SynLeptin-1 or -2 polypeptides for 30 days (FIG. 2).

adipose tissue = test: Autopsy and pathological examination of experimental rabbits; type: in vivo, rabbit; conditions: polypeptide-Adjuvant mixture injected three times into hypoderm every two weeks, versus saline-Adjuvant
Experimental: In FIG. 3A, arrows indicate distribution of adipose tissue in various organs in the test rabbit that SynLeptin-2 polypeptide-Adjuvant mixture was injected three times into the hypoderm every two weeks. In FIG. 3B, arrows indicate distribution of adipose tissue in various organs injected with saline-Adjuvant mixture three times into the hypoderm every two weeks.
We analyzed the reasons for the decrease in body weight by autopsy and pathological examinations. […] When the rabbits were sacrificed and autopsy was carried out, no pathological abnormali in their organs was observed. However, remarkable reduction of fat mass not only in abdominal and subcutaneous adipose tissues but also tissues surrounding various organs was evident.

[3] = Body weight of white rabbits after subcutaneous injection of protein-Adjuvant mixture; type: in vivo, rabbit; conditions: 10 days after third injection
Experimental: as §1

## Leptin: 16 kDa ob polypeptide hormone synthesized in adipose tissue, regulating body weight
[1]; other obese people
  weight response upon Leptin treatment (other obese people): did not lost weight
[1]; some obese people
  body weight lost: 7.1 kg

B1: SynLeptin-2: Tat polypeptide of 86 amino acids from N-terminus of Tat, expressed from pGEX4T-3-SynLeptin-2 (protein)
chain: MEPVDPRLEPWKHPGSQPKTACTNCYCKKCCFHCQVCFMTKALGISYGRKKRRQRRRAHQNSQTHQASLSKQPTSQSRGDPTGPKE
modifications: 86 amino acid Tat mutant
notes: Tat polypeptide of 86 amino acids from N-terminus of Tat, expressed from pGEX4T-3-SynLeptin-2
[2]
  weight loss (decrease of body weight): 4.3%
Adipose tissue
  fat / adipose tissue at autopsy: markedly reduced fat in various tissues including adipose tissue

B2: SynLeptin-1: Tat polypeptide fragment, 71 (b9: 72) amino acids from N-terminus of Tat, expressed from pGEX4T-3-SynLeptin-1 (protein)
chain: MEPVNPSLEPWKHPGSQPKTACTNCYCAKCCFHCQVCFITKALGISYGRAKRRQRRRPPQGSQTHQVSLSK
modifications: 71 amino acid Tat mutant
[2]
  weight increase: 3.5%
[3]; rabbits, starting body weight 1.2 kg, control 2.5 and 2.45 kg
  body weight of individual rabbit of the experimental group: 1.8 kg and 2.08 kg
[3]; two rabbits, control average 2.48 kg
  average body weight of the experimental group: 1.94 kg
